Entries after “also recorded” stand apart in the source; their conditions may differ. Structures can show the parent of a compound that is named as a salt.
B1: seribantumab: human monoclonal anti-ErbB3 IgG2; heavy chain SEQ ID NO:7, light chain SEQ ID NO:8 (antibody, listed as Homo sapiens)
heavy: EVQLLESGGGLVQPGGSLRLSCAASGFTFSHYVMAWVRQAPGKGLEWVSSISSSGGWTLYADSVKGRFTISRDNSKNTLYLQMNSLRAEDTAVYYCTRGLKMATIFDYWGQGTLVTVSSASTKGPSVFPLAPCSRSTSESTAALGCLVKDYFPEPVTVSWNSGALTSGVHTFPAVLQSSGLYSLSSVVTVPSSNFGTQTYTCNVDHKPSNTKVDKTVERKCCVECPPCPAPPVAGPSVFLFPPKPKDTLMISRTPEVTCVVVDVSHEDPEVQFNWYVDGVEVHNAKTKPREEQFNSTFRVVSVLTVVHQDWLNGKEYKCKVSNKGLPAPIEKTISKTKGQPREPQVYTLPPSREEMTKNQVSLTCLVKGFYPSDIAVEWESNGQPENNYKTTPPMLDSDGSFFLYSKLTVDKSRWQQGNVFSCSVMHEALHNHYTQKSLSLSPGK
light: QSALTQPASVSGSPGQSITISCTGTSSDVGSYNVVSWYQQHPGKAPKLIIYEVSQRPSGVSNRFSGSKSGNTASLTISGLQTEDEADYYCCSYAGSSIFVIFGGGTKVTVLGQPKAAPSVTLFPPSSEELQANKATLVCLVSDFYPGAVTVAWKADGSPVKVGVETTKPSKQSNNKYAASSYLSLTPEQWKSHRSYSCRVTHEGSTVEKTVAPAECS

Legend:
[1] = tested on: NSCLC cell lines (A549, EKVX, H358, H322M, Calu-3, H661, H441, H1355, H430); assay: 3D spheroid proliferation assay with or without HRG and chemotherapy; type: cell-based, human; details: 5 nM HRG; docetaxel 111 nM, pemetrexed 1111 nM; 96hrs; three cell lines most responsive to HRG
Description: HRG-driven ErbB3 signaling mediates survival signaling through the PI3K/AKT pathway and has been implicated as a general mechanism that imparts insensitivity to cytotoxic chemotherapy. […] Proliferation was measured, in the presence or absence of HRG, in a panel of nine cell lines using 3D spheroid cultures.

[2] = tested on: human ovarian epithelial carcinoma OVCAR8 cells; assay: OVCAR8 xenograft model of ovarian cancer, combination therapy study; type: in vivo, mouse; details: for tumor progression over time: FIGS. 7A-7C, monotherapy versus co-administration with fixed dose of seribantumab; for tumor growth, single agent: i.p., seribantumab 300 μg Q3D, irinotecan HCl 6.25 mg/kg Q7D, gemcitabine 25 mg/kg Q7D, paclitaxel 10 mg/kg Q7D, three weeks
From the text: In these xenograft studies, the mice were obtained from Charles River Laboratories. The mice were housed in Tecniplast® Individually Ventilated polycarbonate (Makrolon®) Cages (IVC) set in climate-controlled rooms and had free access to food and acidified water. A cell suspension of 8×10^6 cells/mouse, mixed 1:1 in reduced growth factor Matrigel™ (BD Biosciences, Cat #354230) and PBS was implanted by subcutaneous injection into the left flank of female, 4-5 week old nu/nu nude, Crl:NU-Foxn1^nu mice. Tumors were allowed to reach 250 mm^3 in size before randomization.
Mice were randomized as above into 8 groups of 10 mice each. […] Treatment continued for three weeks. Tumors were measured twice weekly and tumor volume calculated.

[3] = tested on: HRG positive (HRG+) tumors; assay: Previous randomized phase II clinical trials of seribantumab plus standard of care, by HRG expression; type: in vivo, human; details: seribantumab added to standard-of-care therapy; patients with HRG expression at or above threshold / HRG+ tumors
[4] = Population pharmacokinetic analysis of seribantumab, combined phase I and phase II studies, two-compartment model; type: in vivo, human
From the text: Covariate selection evaluated potential relationships between baseline covariates (sex, race, age, weight, intended-dose, and study/indication) and volume of distribution and clearance. The results indicated significant relationships between weight, sex, and clearance, with the final parameter estimates provided in Table 1. […] In the presence of the relationship between weight and clearance, no significant relationship between volume (V) and weight (WT) were observed.

[5] = Clinical studies of seribantumab co-administered with full doses of chemotherapy (MTD, safety); type: in vivo, human; details: co-administered with standard doses of pemetrexed, paclitaxel or cabazitaxel; 40 mg/kg loading dose then weekly 20 mg/kg
[6] = fixed effect, final population PK estimate, 499 patients

Row | Molecule | effect of HRG on inhibition of cell viability by chemotherapy (HRG-induced resistance) [1] | tumor progression over time [2] | tumor growth, single agent [2] | also measured
1 | CC(=O)O[C@@]12CO[C@@H]1C[C@H](O)[C@@]1(C)C(=O)[C@H](O)C3=C(C)[C@@H](OC(=O)[C@H](O)[C@@H](NC(=O)OC(C)(C)C)c4ccccc4)C[C@@](O)([C@@H](OC(=O)c4ccccc4)[C@H]21)C3(C)C [docetaxel, 1,7β,10β-trihydroxy-9-oxo-5β,20-epoxytax-11-ene-2α,4,13α-triyl 4-acetate 2-benzoate 13-{(2R,3S)-3-[(tert-butoxycarbonyl)amino]-2-hydroxy-3-phenylpropanoate}] | induces resistance; also recorded: decreased |  |  | 
2 | CCc1c2c(nc3ccc(OC(=O)N4CCC(N5CCCCC5)CC4)cc13)-c1cc3c(c(=O)n1C2)COC(=O)[C@]3(O)CC [irinotecan HCl] |  | began to progress over time | inhibited tumor growth | 
3 | Nc1nc(=O)c2c(CCc3ccc(C(=O)N[C@@H](CCC(=O)O)C(=O)O)cc3)c[nH]c2[nH]1 [pemetrexed, (2S)-2-{[4-[2-(2-amino-4-oxo-1,7-dihydropyrrolo[2,3-d]pyrimidin-5-yl)ethyl]benzoyl]amino}pentanedioic acid] | induces resistance; also recorded: decreased |  |  | 
4 | Nc1ccn([C@@H]2O[C@H](CO)[C@@H](O)C2(F)F)c(=O)n1 [gemcitabine] |  | began to progress over time | inhibited tumor growth | 
5 | CC(=O)O[C@H]1C(=O)[C@@]2(C)[C@H]([C@H](OC(=O)c3ccccc3)[C@]3(O)C[C@H](OC(=O)[C@H](O)[C@@H](NC(=O)c4ccccc4)c4ccccc4)C(C)=C1C3(C)C)[C@]1(OC(C)=O)CO[C@@H]1C[C@@H]2O [paclitaxel] |  | began to progress over time | inhibited tumor growth | 
6 | B1 |  |  | significantly suppressed tumor growth | progression-free survival (PFS) [3]: improved progression-free survival; also recorded: increased PFS; CL [4, 6]: 3.15 L/wk; Q [4, 6]: 2.92 L/wk; V [4, 6]: 3.23 L; V2 [4, 6]: 2.68 L; Cov CL and V ([4]; random effect): 27%; Omega CL ([4]; random effect): 36%; Omega V ([4]; random effect): 37%; maximum tolerated dose (MTD) [5]: no MTD was identified; also recorded: no maximum tolerated dose (MTD) reached

Source: US20160303232A1 (Merrimack Pharmaceuticals, Inc., priority 2015, published 2016)
